Each block holds one binder with its values, some of them ahead of it.
What was measured:
[1] = molecular target: T1, rHuman EGF R/Fc Chimera, CF (R&D Systems Cat#344-ER) (human, UniProt P00533 25-645); experiment: ECL (MSD multi-spot) titration, Fab at 0.07438 uM; blank spot 2504;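 further: blank spot per well as comparator with Hit at signal to blank ratio of 4 or more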
T1 construct: Bought protein; also called epidermal growth factor receptor; not shown: Fc of the bought chimera

[2] = molecular target: T2, Recombinant Human DLL4 (R&D Systems Cat#1506-D4/CF) (human, UniProt Q9NR61 27-524); experiment: as above
T2 construct: Bought protein; also called delta-like protein 4

[3] = molecular target: T3, rHuman IGF-1 sR, CF (R&D Systems Cat#391-GR) (human, UniProt P08069 31-932); experiment: as above
T3 construct: Bought soluble receptor; also called insulin-like growth factor-1 soluble receptor; IGF-R1

[4] = molecular target: T4, rHuman Erythropoietin R/Fc Chimera, CF (R&D Systems Cat#963-ER) (human, UniProt P19235 25-250); experiment: as above
T4 construct: Bought protein; also called EPO R/Fc; EPOR; not shown: Fc of the bought chimera
T4 sequence: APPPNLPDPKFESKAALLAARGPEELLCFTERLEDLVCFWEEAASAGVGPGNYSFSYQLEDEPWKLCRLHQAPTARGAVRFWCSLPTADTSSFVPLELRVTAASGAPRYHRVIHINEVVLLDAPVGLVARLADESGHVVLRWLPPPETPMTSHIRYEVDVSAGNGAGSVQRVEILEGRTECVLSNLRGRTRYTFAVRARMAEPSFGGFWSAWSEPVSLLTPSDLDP

[5] = molecular target: T5, rHuman P-Cadherin/Fc Chimera, CF (R&D Systems Cat#861-PC) (human, UniProt P22223 108-654); experiment: as above
T5 construct: Bought protein; not shown: Fc of the bought chimera

[6] = molecular target: T6, rHuman Notch-1/Fc Chimera, CF (R&D Systems Cat#3647-TK) (human, UniProt P46531 19-526); experiment: as above
T6 construct: Bought protein; not shown: Fc of the bought chimera

[7] = molecular target: T1, rHuman EGF R/Fc Chimera, CF (R&D …); experiment: ECL (MSD multi-spot) titration, Fab at 0.2975 uM; blank spot 5019;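 further: blank spot per well as comparator with Hit at signal to blank ratio of 4 or more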
[8] = molecular target: T2, Recombinant Human DLL4 (R&D Systems …); experiment: as above
[9] = molecular target: T3, rHuman IGF-1 sR, CF (R&D Systems …); experiment: as above
[10] = molecular target: T4, rHuman Erythropoietin R/Fc Chimera, CF …; experiment: as above
[11] = molecular target: T5, rHuman P-Cadherin/Fc Chimera, CF (R&D …); experiment: as above
[12] = molecular target: T6, rHuman Notch-1/Fc Chimera, CF (R&D …); experiment: as above
[13] = molecular target: T1, rHuman EGF R/Fc Chimera, CF (R&D …); experiment: ECL (MSD multi-spot) titration, Fab at 1.19 uM; blank spot 24999;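 further: blank spot per well as comparator with Hit at signal to blank ratio of 4 or more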
[14] = molecular target: T2, Recombinant Human DLL4 (R&D Systems …); experiment: as above
[15] = molecular target: T3, rHuman IGF-1 sR, CF (R&D Systems …); experiment: as above
[16] = molecular target: T4, rHuman Erythropoietin R/Fc Chimera, CF …; experiment: as above
[17] = molecular target: T5, rHuman P-Cadherin/Fc Chimera, CF (R&D …); experiment: as above
[18] = molecular target: T6, rHuman Notch-1/Fc Chimera, CF (R&D …); experiment: as above
[19] = molecular target: T1, rHuman EGF R/Fc Chimera, CF (R&D …); experiment: ECL (MSD multi-spot) titration, Fab at 0.01859 uM; blank spot 1776;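 further: blank spot per well as comparator with Hit at signal to blank ratio of 4 or more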
[20] = molecular target: T2, Recombinant Human DLL4 (R&D Systems …); experiment: as above
[21] = molecular target: T3, rHuman IGF-1 sR, CF (R&D Systems …); experiment: as above
[22] = molecular target: T4, rHuman Erythropoietin R/Fc Chimera, CF …; experiment: as above
[23] = molecular target: T5, rHuman P-Cadherin/Fc Chimera, CF (R&D …); experiment: as above
[24] = molecular target: T6, rHuman Notch-1/Fc Chimera, CF (R&D …); experiment: as above
[25] = molecular target: T7, Recombinant Human DLL4 (R&D Systems, Cat#1506-D4/CF) (human, UniProt Q9NR61 27-529); experiment: ECL (MSD) Fab titration; binding affinity estimated from the 50% binding signal
T7 construct: Bought protein; also called rHuman DLL4; delta-like protein 4

- ECL signal [1]: 16600
- ECL signal [2]: 20700
- ECL signal [3]: 5800
- ECL signal [4]: 154000
- ECL signal [5]: 14800
- ECL signal [6]: 22000
- ECL signal [7]: 42200
- ECL signal [8]: 34700
- ECL signal [9]: 17400
- ECL signal [10]: 167000
- ECL signal [11]: 26000
- ECL signal [12]: 37500
- ECL signal [13]: 62500
- ECL signal [14]: 74900
- ECL signal [15]: 35200
- ECL signal [16]: 193000
- ECL signal [17]: 69700
- ECL signal [18]: 72000
- ECL signal [19]: 11800
- ECL signal [20]: 18900
- ECL signal [21]: 3780
- ECL signal [22]: 188000
- ECL signal [23]: 11700
- ECL signal [24]: 17600
B1: Fab VH1-46_IGHD6-13*01_IGHJ4*01 & L2_IGKJ1*01 (Fab, V domains shown)
VH: QVQLVQSGAEVKKPGASVKVSCKASGYTFTSYYMHWVRQAPGQGLEWMGIINPSGGSTSYAQKFQGRVTMTRDTSTSTVYMELSSLRSEDTAVYYCAREGYSSSWYDYFDYWGQGTLVTVSS
VL: not shown
notes: also called Fab No. 7

- Kd [25]: ≤ 10 nM
B2: Fab VH1-46_IGHD6-6*01_IGHJ1*01 & L6_IGKJ1*01 (Fab, V domains shown)
VH: QVQLVQSGAEVKKPGASVKVSCKASGYTFTSYYMHWVRQAPGQGLEWMGIINPSGGSTSYAQKFQGRVTMTRDTSTSTVYMELSSLRSEDTAVYYCAREEYSSSSAEYFQHWGQGTLVTVSS
VL: not shown
notes: Fab from E. coli; VH joined to CH1 with Flag and His tags (Plasmid A), VL to kappa CL (Plasmid C)

— patent US20120058906A1 (published 2012)
